Measurements from US7867500B2, “Cofactor that modulates steroid receptor activities” (The United States of America as represented by the …, priority 2004, dated 2011).

Molecular target: T1, GR (Rattus norvegicus, UniProt P06536)
T1 construct: expressed in transfected cells; host or cells: Cos-7
T1 sequence (P06536 1-795): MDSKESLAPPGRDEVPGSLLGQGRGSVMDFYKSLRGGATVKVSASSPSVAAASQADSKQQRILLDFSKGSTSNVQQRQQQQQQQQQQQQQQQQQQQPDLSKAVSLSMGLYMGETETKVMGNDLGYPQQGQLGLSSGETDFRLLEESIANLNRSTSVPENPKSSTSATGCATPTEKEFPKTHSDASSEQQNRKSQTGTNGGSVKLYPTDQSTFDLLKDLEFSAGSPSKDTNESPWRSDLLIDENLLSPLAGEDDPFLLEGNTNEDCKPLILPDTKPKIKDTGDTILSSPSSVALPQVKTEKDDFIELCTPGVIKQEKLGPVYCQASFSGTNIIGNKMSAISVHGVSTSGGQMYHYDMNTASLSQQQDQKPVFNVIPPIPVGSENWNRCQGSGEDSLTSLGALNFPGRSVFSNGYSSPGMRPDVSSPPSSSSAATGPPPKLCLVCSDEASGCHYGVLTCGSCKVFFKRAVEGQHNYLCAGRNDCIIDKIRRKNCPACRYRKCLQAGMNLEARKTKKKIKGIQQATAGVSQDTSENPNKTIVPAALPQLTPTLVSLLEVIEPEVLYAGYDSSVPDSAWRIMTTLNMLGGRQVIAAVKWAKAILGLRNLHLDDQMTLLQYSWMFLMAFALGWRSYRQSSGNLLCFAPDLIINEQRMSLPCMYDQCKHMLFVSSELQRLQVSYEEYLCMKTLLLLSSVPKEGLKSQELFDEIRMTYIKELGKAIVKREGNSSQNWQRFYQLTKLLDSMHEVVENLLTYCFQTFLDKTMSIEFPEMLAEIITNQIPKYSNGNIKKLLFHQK
T1 sequence (Q6EMB2 5-1281 A149V/F1267S partner limits assumed): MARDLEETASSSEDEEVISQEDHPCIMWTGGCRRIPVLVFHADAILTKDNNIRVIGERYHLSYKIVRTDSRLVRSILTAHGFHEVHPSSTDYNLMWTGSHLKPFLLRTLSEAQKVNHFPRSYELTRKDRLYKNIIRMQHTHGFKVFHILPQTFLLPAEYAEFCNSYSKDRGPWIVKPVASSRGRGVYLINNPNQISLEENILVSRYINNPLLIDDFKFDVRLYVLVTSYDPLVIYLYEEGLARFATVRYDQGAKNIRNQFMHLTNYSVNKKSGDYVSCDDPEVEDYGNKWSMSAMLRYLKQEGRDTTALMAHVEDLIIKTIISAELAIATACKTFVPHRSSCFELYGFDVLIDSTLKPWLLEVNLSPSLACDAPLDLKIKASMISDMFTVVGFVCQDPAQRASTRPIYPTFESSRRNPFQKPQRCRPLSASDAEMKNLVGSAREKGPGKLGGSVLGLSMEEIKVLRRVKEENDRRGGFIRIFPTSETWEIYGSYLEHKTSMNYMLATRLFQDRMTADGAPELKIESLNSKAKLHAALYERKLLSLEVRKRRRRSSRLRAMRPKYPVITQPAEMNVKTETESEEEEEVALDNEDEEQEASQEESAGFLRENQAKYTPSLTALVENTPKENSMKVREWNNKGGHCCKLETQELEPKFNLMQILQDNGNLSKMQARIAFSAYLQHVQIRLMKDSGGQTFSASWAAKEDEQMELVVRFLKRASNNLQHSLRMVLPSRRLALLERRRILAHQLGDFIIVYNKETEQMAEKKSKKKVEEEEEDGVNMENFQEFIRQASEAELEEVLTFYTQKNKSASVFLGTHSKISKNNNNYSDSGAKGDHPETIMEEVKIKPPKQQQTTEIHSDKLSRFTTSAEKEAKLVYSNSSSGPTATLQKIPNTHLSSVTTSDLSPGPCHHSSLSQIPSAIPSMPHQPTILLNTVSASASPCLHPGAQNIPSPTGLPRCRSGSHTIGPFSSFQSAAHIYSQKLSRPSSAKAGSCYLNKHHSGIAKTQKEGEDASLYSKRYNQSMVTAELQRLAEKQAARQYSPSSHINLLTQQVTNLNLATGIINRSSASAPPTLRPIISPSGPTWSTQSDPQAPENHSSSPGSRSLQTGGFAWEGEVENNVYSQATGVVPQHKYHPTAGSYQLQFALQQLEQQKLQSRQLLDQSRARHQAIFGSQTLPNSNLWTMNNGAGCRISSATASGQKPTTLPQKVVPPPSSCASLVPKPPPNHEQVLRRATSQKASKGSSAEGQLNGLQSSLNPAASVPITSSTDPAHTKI
Experiment: Whole cell co-immunoprecipitation in Cos-7 cells: GR
Type: binding
Settings: EtOH ± 1 μM Dex, 2 hr
Method: FIG. 7C1-3 illustrate whole cell co-immunoprecipitation of STAMP, GR, and TIF2/GRIP1. Cos-7 cells that had been co-transfected with Flag/STAMP (or Flag itself), HA/GRIP1, and GR plasmids (10 μg of each/150 mm dish) for 48 hr were treated for 2 hr with EtOH±1 μM Dex before being lysed as described in Example 1. Lysate was either analyzed on SDS-PAGE gels or treated with anti-Flag antibody to immunoprecipitate Flag/STAMP. The pellets were separated on SDS-PAGE gels and Western blotted with anti-Flag (FIG. 7C1), anti-HA (FIG. 7C2), or anti-GR antibodies (FIG. 7C3). In each panel, lane 1=5.7% of input lysate, lane 2=IP pellet of Flag/STAMP, HA/GRIP1, and GR+EtOH, lane 3=IP pellet of Flag/STAMP, HA/GRIP1, and GR+Dex, and lane 4=control IP pellet of Flag, HA/GRIP1, and GR+EtOH. Similar results were obtained in a second experiment.
Immunoprecipitations were conducted as generally described in Wang et al. (2004) Mol. Endocrinol. 18: 1476-95, with slight modifications. The day before transfection, Cos-7 cells were seeded into 150 mm dishes at 200,000 cells per dish containing 20 ml of media. On the next day, about 30 μg of DNA/dish was transfected with 60 μl of FuGene reagent. […]

B1: STAMP: SRC-1 and TIF2 Associated Modulatory Protein, 1277 amino acid human polypeptide, expressed from transfected plasmid (protein)
chain: T1 sequence (Q6EMB2 5-1281 A149V/F1267S partner limits assumed)
co-immunoprecipitation of GR with Flag-STAMP by anti-Flag antibody: co-immunoprecipitated
